# Assays:
# HUVEC = experiment: Binding of 488-Gal1 to ECs (flow cytometry); assay type: cell-based, human
# HUVEC migration = experiment: EC migration assay (HUVEC); assay type: cell-based, human; parameters: inhibitory activity in Gal1-induced cell migration: dose or concentration left out as unconfirmed
# Protocol: (§1) Cells were incubated at 37° C. for periods ranging from 0 to 24 h and were visualized by phase-contrast microscopy. Capillary-like tubular structures were scored by counting the number of tubules (closed areas) per well in a phase-contrast microscope (Nikon E-100). For migration assays, ECs (4×10^4/well) transfected or not with specific siRNA were resuspended in M199 medium supplemented with 1% FCS. Cells were placed into the top chamber of the insert while the bottom well was filled with Gal1 or VEGF-A in the absence or presence of the above mentioned stimuli. After 24 hours, inserts were stained with crystal violet (Sigma) and analyzed in an inverted microscope. For each filter, 4 images were obtained and cells were counted with ImageJ software v1.46r (NIH). […] After 24 hours, cells were incubated in the presence of 0.8 μCi [^3H]-thymidine (NEN Dupont). Cells were then harvested and radioactivity was measured in a 1414 Liquid Scintillation Counter (Perkin Elmer). Tumor-associated ECs were identified by flow cytometry using Alexa Fluor 647-conjugated anti-CD34 (RAM34; eBioscience) and FITC-conjugated anti-CD45 (J33; Immunotech). Microvessel density (MVD) was determined by counting the number of CD31^+ microvessels present in 10 mm^2. Ten random 400× fields were counted.
# HUVEC tube formation = experiment: Capillary-like tube formation on Matrigel (HUVEC); assay type: cell-based, human; settings: for tube formation induced by Gal1 / inhibitory activity in Gal1-induced formation of tubular structures (tubulogenesis): HUVEC
# Protocol: as §1
# ECs = experiment: EC proliferation assay ([3H]-thymidine); assay type: cell-based, human
# Protocol: as §1
# rhVEGFR2 = molecular target: T1, rhVEGFR2 (Homo sapiens, UniProt P35968); experiment: FRET-based fluorescence spectroscopy, Gal1 binding to rhVEGFR2; settings: 594-Gal1 added to 0.5 μM 488-VEGFR2, 25° C.
# T1 construct: the recombinant extracellular domain of VEGFR2 expressed in human cells (Sino Biological Inc.); purchased Sino Biological Inc; host or cells: human cells
# T1 sequence (P35968 20-764 limits assumed): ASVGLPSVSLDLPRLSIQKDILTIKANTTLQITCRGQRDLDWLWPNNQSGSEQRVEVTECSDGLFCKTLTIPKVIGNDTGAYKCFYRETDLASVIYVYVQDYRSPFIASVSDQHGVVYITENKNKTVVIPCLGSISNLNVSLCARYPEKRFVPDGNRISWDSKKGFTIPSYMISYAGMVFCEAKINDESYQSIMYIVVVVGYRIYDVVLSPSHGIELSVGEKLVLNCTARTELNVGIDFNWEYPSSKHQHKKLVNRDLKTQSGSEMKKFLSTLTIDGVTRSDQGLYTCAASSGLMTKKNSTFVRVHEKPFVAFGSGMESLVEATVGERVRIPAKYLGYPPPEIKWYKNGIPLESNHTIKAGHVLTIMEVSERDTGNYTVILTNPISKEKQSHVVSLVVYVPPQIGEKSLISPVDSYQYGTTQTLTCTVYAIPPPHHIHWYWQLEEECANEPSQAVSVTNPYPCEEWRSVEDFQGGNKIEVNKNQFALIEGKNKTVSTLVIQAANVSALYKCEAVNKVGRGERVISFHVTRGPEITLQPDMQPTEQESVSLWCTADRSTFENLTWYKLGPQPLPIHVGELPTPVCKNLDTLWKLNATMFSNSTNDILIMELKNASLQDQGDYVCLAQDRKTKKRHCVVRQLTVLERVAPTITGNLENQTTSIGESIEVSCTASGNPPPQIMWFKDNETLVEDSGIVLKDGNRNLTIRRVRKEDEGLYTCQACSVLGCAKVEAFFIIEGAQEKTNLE
# Protocol: Association between rhVEGFR2 and Gal1 was studied by a FRET-based fluorescence spectroscopy approach. NHS-activated fluorophores DyLight 488 (DL488, FRET donor) and DyLight 594 (DL594, FRET acceptor) were purchased from Thermo Scientific. For labeling, 4 mg rhGal1 and 100 μg of the recombinant extracellular domain of VEGFR2 expressed in human cells (Sino Biological Inc.) were modified with 200 μg of DL594 and 50 μg of DL488, respectively. Labeling was carried out in PBS buffer in the presence of 5 mM dithiothreitol (DTT) for 1 hour at room temperature following manufacturer's recommended protocol (Thermo Scientific). Labeled rhGal1 was purified by size exclusion chromatography using a Superdex-75 column (GE Life Sciences) generated in PBS containing 5 mM DTT and concentrated up to 200 μM using Centricon tubes (Millipore). Labeled VEGFR2 was dialyzed for 48 hours against PBS using a homemade microdialyzer. Fluorescence spectra were measured in a JASCO FP-6500 spectrofluorometer endowed with a Peltier effect thermostatized cell holder. A 4×4 mm fluorescence cell was employed. All binding assays were carried out at 25° C. in PBS buffer with the addition of 5 mM DTT. Excitation wavelength was set to 493 nm, with a bandpass of 1 nm. Emission spectra were recorded from 500 to 680 nm, using a bandpass of 3 nm. […] Fluorescence intensity at 518 nm was corrected for dilution and inner filter effects.
# human recombinant Gal-1 = molecular target: T2, human recombinant Gal-1 (Homo sapiens, UniProt P09382); experiment: Affinity assay (SPR) of fully human anti-Gal1 monoclonal antibodies; assay type: binding; settings: for Ka: kinetics model of interaction adjustment 1:1, BIAEvaluation 3.0
# T2 construct: made in house
# T2 sequence (P09382 whole entry): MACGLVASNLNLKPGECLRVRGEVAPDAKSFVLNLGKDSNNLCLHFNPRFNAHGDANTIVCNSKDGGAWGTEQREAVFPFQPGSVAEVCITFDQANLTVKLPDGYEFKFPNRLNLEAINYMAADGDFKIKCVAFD
# Excerpt: Also conducted was an affinity assay (SPR) for the newly developed fully human anti-Gal1 monoclonal antibodies. In order to characterize affinities of the new anti-Gal-1 monoclonal antibodies, dose-response (RU) curves were collected of the interactions between the monoclonal antibodies and human recombinant Gal-1 (FIG. 14A and FIG. 14B).
# By using the BIAEvaluation 3.0 software in a kinetics model of interaction adjustment 1:1, kinetic parameters, constants of dissociation (Kd) and affinity (Ka) were calculated.
# [1] = test system: Gal1 peptides with the consensus motif MAADGDF; experiment: PEPperMAP Conformational Epitope Mapping Analysis; assay type: binding; settings: antibody 10 μg/mL; all three peptide lengths
# Protocol: Epitope mapping: In order to determine the specific conformational epitopes recognized by the new anti-Gal1 antibodies, a PEPperMAP® Conformational Epitope Mapping Analysis was performed.
molecule,measurement,setting,value
CC(=O)N[C@H]1[C@@H](OCc2ccccc2)O[C@H](CO)[C@H](O)[C@@H]1O [benzyl-α-GalNAc],Gal1 binding to ECs in presence of inhibitor,HUVEC,only partially inhibitory
"O[C@H]1[C@H]2[C@H](O)CCCN2C[C@H]1O [swainsonine, reference compound]",EC migration induced by Gal1,HUVEC migration,almost completely prevented
same,tube formation induced by Gal1,HUVEC tube formation,almost completely prevented
same,EC proliferation induced by Gal1,ECs,almost completely prevented
same,Gal1 binding to ECs in presence of inhibitor,HUVEC,almost completely abrogated
Gal1^N46D: Gal1 mutant lacking carbohydrate-binding activity [reference compound],impact on EC response,HUVEC tube formation,no impact
same,binding to ECs,HUVEC; any of the concentrations tested,no binding
"Gal1: recombinant Galectin-1, glycan-binding protein (SEQ ID NO: 2)",dissociation constant (Kd),rhVEGFR2,low micromolar range
"OC[C@H]1O[C@@H](O[C@H]2[C@H](O)[C@@H](O)C(O)O[C@@H]2CO)[C@H](O)[C@@H](O)[C@H]1O (stereo partly drawn) [lactose, reference compound]",EC migration induced by Gal1,HUVEC migration,almost completely prevented
same,tube formation induced by Gal1,HUVEC tube formation,almost completely prevented
same,EC proliferation induced by Gal1,ECs,almost completely prevented
"Clone 21: fully human anti-Gal1 monoclonal antibody (IgG1) from scFv library; VH SEQ ID NO: 15, VK SEQ ID NO: 19 (antibody, V domains shown, IgG1 format) VH: EVQLLESGGGLVQPGGSLRLSCAASGFTFSSYAMSWVRQAPGKGLEWVSEIGRVGVNTLYADSVKGRFTISRDNSKNTLYLQMNSLRAEDTAVYYCAKKATQFDYWGQGTLVTVSS VL: DIQMTQSPSSLSASVGDRVTITCRASQSISSYLNWYQQKPGKAPKLLIYRASRLQSGVPSRFSGSGSGTDFTLTISSLQPEDFATYYCQQTIGPPDTFGQGTKVEIKR",interaction with human recombinant Gal1,human recombinant Gal-1,high specific interactions
same,Ka,human recombinant Gal-1,649000 M⁻¹
same,binding activity against epitope-like spots formed by adjacent peptides with consensus motif MAADGDF,[1],moderate to high binding activity
same,inhibitory activity in Gal1-induced cell migration,HUVEC migration,significantly blocked
same,inhibitory activity in Gal1-induced formation of tubular structures (tubulogenesis),HUVEC tube formation,significantly blocked
"Clone 42: fully human anti-Gal1 monoclonal antibody (IgG1) from scFv library; VH SEQ ID NO: 23, VK SEQ ID NO: 27 (antibody, V domains shown, IgG1 format) VH: EVQLLESGGGLVQPGGSLRLSCAASGFTFSSYAMSWVRQAPGKGLEWVSGISGSGDYTSYADSVKGRFTISRDNSKNTLYLQMNSLRAEDTAVYYCAKGYGAFDYWGQGTLVTVSS VL: DIQMTQSPSSLSASVGDRVTITCRASQSISSYLNWYQQKPGKAPKLLIYGASWLQSGVPSRFSGSGSGTDFTLTISSLQPEDFATYYCQQSANYPSTFGQGTKVEIKR",interaction with human recombinant Gal1,human recombinant Gal-1,high specific interactions
same,Ka,human recombinant Gal-1,7.63e+06 M⁻¹
same,binding activity against epitope-like spots formed by adjacent peptides with consensus motif MAADGDF,[1],higher binding activity
same,inhibitory activity in Gal1-induced cell migration,HUVEC migration,significantly blocked
same,inhibitory activity in Gal1-induced formation of tubular structures (tubulogenesis),HUVEC tube formation,significantly blocked

# Reference: patent US11020478B2, “Methods for modulating angiogenesis of cancers refractory to anti-VEGF treatment” (INIS BIOTECH LLC, priority 2013, dated 2021)
